Legend:
Assay type in all cases: physicochemical
[1] = Electrophoresis (SDS-PAGE 12 and 18%) with silver staining of proteins after encapsulation in cores; conditions: cores with sodium hyaluronate and rice starch diluent particles; carbon dioxide atomisation; cold medium ethanol or ethanol containing solid carbon dioxide; dried with air at room temperature
Experimental: (§1) Cores suitable for air suspension coating and containing either human growth hormone (hGH) or erythropoietin (EPO) were prepared by essentially according to Example 1 using carbon dioxide for atomisation but with ethanol or ethanol containing solid carbon dioxide as the cold medium. For hGH the composition contained sodium hyaluronate (1%, about 4.1 g), diluent particles (rice starch, Sigma 57260, 1.83 g) and hGH (217 mg) and for EPO sodium hyaluronate (about 3.4), diluent particles (about 1.48 g) and EPO (11 mg). There was substantial stirring in the cold medium in the presence of solid carbon dioxide and little, if any, backflow of gas. The cold medium was removed by filtration and the cores dried using air at room temperature and atmospheric pressure. Cores suitable for air suspension coating were formed containing hGH (624 mg) and EPO (468 mg). […] No increase in the content of dimer or polymer forms of hGH were observed by HPLC size exclusion chromatography (SEC-HPLC, TSK2000 SWx1, Tosoh Corporation) according to Reslow et al (Sustained release of human growth hormone (hGH) from PLG-coated starch microspheres. Drug Delivery Systems and Sciences, 2002, 2,1 103-109).

[2] = Western blotting for dimer content
Experimental: as §1

[3] = HPLC size exclusion chromatography (SEC-HPLC, TSK2000 SWx1) for dimer or polymer forms; conditions: cores prepared per Example 10
Experimental: as §1

Row | Substance | degradation products detected by electrophoresis [1] | increase in dimer content ([2]; absence of carbon dioxide in the cold medium (ethanol)) | increase in dimer content ([2]; carbon dioxide present in the cold medium (ethanol)) | increase in the content of dimer or polymer forms [3]
1 | erythropoietin [EPO] | No degradation products | clearly higher increase | slight increase | 
2 | human growth hormone [hGH] | No degradation products |  |  | No increase
